Several values for one entry are separate records, joined by “and”; a condition that tells them apart may be missing. Identical values can stand only once.
Molecular target: the molecule itself
Experiment: cryo-EM structure

B1: HMPV nucleoprotein N, full length, strain NL1-00 (A1), RNA-bound oligomers (N-RNA) (natural protein, UniProt Q91F57 1-394, looked up)
chain: MSLQGIHLSDLSYKHAILKESQYTIKRDVGTTTAVTPSSLQQEITLLCGEILYAKHADYKYAAEIGIQYISTALGSERVQQILRNSGSEVQVVLTRTYSLGKIKNNKGEDLQMLDIHGVEKSWVEEIDKEARKTMATLLKESSGNIPQNQRPSAPDTPIILLCVGALIFTKLASTIEVGLETTVRRANRVLSDALKRYPRMDIPKIARSFYDLFEQKVYHRSLFIEYGKALGSSSTGSKAESLFVNIFMQAYGAGQTMLRWGVIARSSNNIMLGHVSVQAELKQVTEVYDLVREMGPESGLLHLRQSPKAGLLSLANCPNFASVVLGNASGLGIIGMYRGRVPNTELFSAAESYAKSLKESNKINFSSLGLTDEEKEAAEHFLNVSDDSQNDYE
stoichiometry N: 10 protomers and 11 protomers and 12 protomers and ≥ 12 protomers

From publication doi:10.1101/2023.06.10.544460 (bioRxiv, 2023)
